# Measured values: patent US8796227B2, “Peptides for inhibiting chemokine binding to chemokine receptors” (Biokine Therapeutics Ltd., priority 2002, dated 2014)
# Entries after “also recorded” stand apart in the source; their conditions may differ.
# Key:
# Human MCP-1 = target: T1, Human MCP-1 (Homo sapiens, UniProt P13500); test: ELISA analysis of the synthetic chemokine-binding peptide; details: chemokine-coated wells, specific binding = at least two fold of binding to control proteins (BSA, Actin, Fibronectin)
# T1 construct: purchased PeproTech, Inc. 300-04
# T1 sequence (P13500 24-99): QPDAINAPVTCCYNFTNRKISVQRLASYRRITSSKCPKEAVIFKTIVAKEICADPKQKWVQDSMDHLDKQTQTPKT
# Method: (§1) Recombinant chemokines were ordered from PeproTech, Inc. (Rocky Hill, N.J., USA). Human SDF-1α (Cat. No. 300-28A), human MIG (Cat. No. 300-26) and human IL-8, (72 amino acids) (Cat. No. 200-08M), belong to the alpha-chemokines (C-X-C) family. Human MCP-1 (MCAF) (Cat. No. 300-04) and human Eotaxin (Cat No. 300-21) belong to the beta-chemokines (C-C family). All chemokines were prepared according to the company recommendations.
# (§2) Peptides were synthesized in the Weizmann Institute of Science, Rehovot, Israel, in order to perform tests for characterization of their influence on the biological activity of the chemokines. The format of the various synthesized peptides was as follows: The cyclic peptides, ACX7CGGGSK-biotin-G and the linear peptides, X12GGGSK-biotin-G. The peptides were biotinylated on their C-termini; the biotin will serve as a detector during the following experiments. Each synthetic peptide was dissolved to concentration of 1 mg/ml (˜0.6 mM) in 4% DMSO (Dimethyl Sulphoxide, Sigma, Cat. # D-2650).
# (§3) NUNC-Immuno™ MaxiSorp™ plates (Cat. No. 4-42404) were coated with the appropriate chemokine (0.1 ml/well, 0.1-1.0 μg/ml in 0.1 M NaHCO3, pH 8.6), overnight at 4° C. The plates were then blocked with 0.2 ml/well of blocking buffer (5 mg/ml BSA in 0.1 NaHCO3). Control wells were treated with blocking buffer alone, with no addition of target protein (chemokine). The plates were washed 6 times with PBST (0.1% Tween 20 in PBS), followed by incubation for 45 minutes at room temperature with 10-fold serial dilutions of individual synthetic peptides (10pg-10 μg) with 1% BSA (PBST-BSA)/well. After the plates were washed 6 times with PBST, the bound peptides were probed by HRP-SA Conjugate, diluted 1:10,000 to 1:20,000 in PBST-BSA, 0.1 ml/well for 45 minutes at room temperature. The target-bound synthetic peptides probed with HRP-SA were quantified by DAKO TMB one-step substrate system, followed by the addition of stop solution, HCl—H2SO4 mixture (0.1 ml/well) (1N HCl, 3N H2SO4). The results were analyzed by ELISA reader at OD450.
# (§4) The present invention identifies chemokine-binding peptides with biological activity. The binding specificities of the various peptides to the chemokines were determined by screening against BSA, Actin and Fibronectin-coated wells as negative controls in parallel experiments. The binding level of the peptides to the various chemokines, which reached at least two fold of the binding level to the control proteins, was considered a specific binding.
# (§5) The specific binding of the peptides was detected by screening methodology, using ELISA, as described in “Materials and Methods”, employing microplates coated with the various chemokines to be checked. The binding specificities of the various peptides to the various chemokines were determined by screening against BSA, Actin and Fibronectin-coated wells as negative controls in parallel experiments.
# (§6) Again, the specificity of the binding, either to one chemokine or more, was established by comparing binding level with the control binding level to non-related proteins, (shown in the Figure as a broken line).
# Eotaxin [1] = target: T2, Eotaxin (Homo sapiens, UniProt P51671); test: as above; details: chemokine-coated wells, specific binding = at least two fold of binding to control proteins (BSA, Actin, Fibronectin)
# T2 construct: purchased PeproTech, Inc. 300-21
# Method: as §1, §2, §3, §4, §5, §6
# human IL-8 = target: T3, human IL-8 (Homo sapiens, UniProt P10145); test: as above; details: chemokine-coated wells, specific binding = at least two fold of binding to control proteins (BSA, Actin, Fibronectin)
# T3 construct: human IL-8, (72 amino acids) (Cat. No. 200-08M); purchased PeproTech, Inc. 200-08M
# T3 sequence (P10145 28-99 limits assumed): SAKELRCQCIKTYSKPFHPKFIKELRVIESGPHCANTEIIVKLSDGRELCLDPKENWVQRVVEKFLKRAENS
# Method: as §1, §2, §3, §4, §5, §6
# SDF-1α = target: T4, SDF-1α (Homo sapiens, UniProt P48061); test: as above; details: chemokine-coated wells, specific binding = at least two fold of binding to control proteins (BSA, Actin, Fibronectin)
# T4 construct: purchased PeproTech, Inc. 300-28A
# T4 sequence (P48061 22-89 limits assumed): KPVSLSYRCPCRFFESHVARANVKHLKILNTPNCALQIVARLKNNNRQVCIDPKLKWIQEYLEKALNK
# Method: as §1, §2, §3, §4, §5, §6
# IL-8 = target: T5, IL-8 (Homo sapiens, UniProt P10145); test: Biovalidation: laminar flow assay, chemokine and VCAM-1 activated adhesion of T cells; type: cell-based; parameters: key to Level of Antagonistic Effect / Level of Effect: + 20%; ++ 50%; +++ 100%; − No effect; details: VCAM-1; for Level of Antagonistic Effect: Chemokine checked IL-8, T cells, peptide 10 μg/ml; for Abolishment of the activity of IL-8: T cell adhesion under flow
# T5 construct: human IL-8, (72 amino acids) (Cat. No. 200-08M); purchased PeproTech, Inc. 200-08M
# T5 sequence (P10145 28-99): T3 sequence (P10145 28-99 limits assumed)
# Eotaxin [2] = target: T2, Eotaxin; test: as above; type: cell-based; details: VCAM-1
# MIG [3] = target: T6, MIG (Homo sapiens, UniProt Q07325); test: ELISA analysis of the synthetic chemokine-binding peptide; details: chemokine-coated wells, specific binding = at least two fold of binding to control proteins (BSA, Actin, Fibronectin)
# T6 construct: purchased PeproTech, Inc. 300-26
# T6 sequence (Q07325 23-125): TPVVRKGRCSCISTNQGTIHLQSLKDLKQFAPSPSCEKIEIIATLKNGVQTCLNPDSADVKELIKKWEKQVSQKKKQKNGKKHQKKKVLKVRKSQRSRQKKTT
# Method: as §1, §2, §3, §4, §5, §6
# [4] = tested on: chemokines MCP-1, SDF-1α, MIG, Eotaxin and IL-8; test: ELISA binding to the panel of chemokines (chemokine not singled out); parameters: species or system human; details: five chemokines tested, control binding level = one fold
# Method: as §1, §2, §3
# The present invention identifies chemokine-binding peptides with biological activity. The binding specificities of the various peptides to the chemokines were determined by screening against BSA, Actin and Fibronectin-coated wells as negative controls in parallel experiments. […]
# The specific binding of the peptides was detected by screening methodology, using ELISA, as described in “Materials and Methods”, employing microplates coated with the various chemokines to be checked. The binding specificities of the various peptides to the various chemokines were determined by screening against BSA, Actin and Fibronectin-coated wells as negative controls in parallel experiments. […]
# MIG [5] = target: T6, MIG; test: Biovalidation: laminar flow assay, chemokine and VCAM-1 activated adhesion of T cells; type: cell-based; details: for Level of Antagonistic Effect: Chemokine checked MIG, T cells, peptide 10 μg/ml; for Level of Antagonistic Effect / Reduction of the activity of MIG: VCAM-1; for Reduction of the activity of MIG: T cell adhesion under flow
# Method: 50 ml blood was added to 10 ml Dextran (Dextran T-500 6% w/v) in PBS (phosphate buffer saline), and 7 ml citrate buffer (25 g citrate, 8 g citric acid in 500 ml PBS). The solution was incubated for 30 min at 25° C. 10 ml Ficoll 1077 (Sigma) was added to the bottom of the tube. The tube was then centrifuged at 2,000 rpm for 30 min, at 18° C., (with the brake mode of the centrifuge off). The interphase was collected and washed twice with 8 ml PBS-5% FCS (fetal calf serum), followed by centrifugation at 1,400 rpm, for 5 min, at 18° C. The cells were re-suspended in PBS-5% FCS at a concentration less than 10^8/ml. 2 ml of the cell solution were applied and incubated for 45 min at 25° C. on a Perspex Nylon wool column, which was pre-soaked with PBS-5% FCS. Each column was washed with 8 ml PBS-5% FCS and the cells (T-cells and erythrocytes) were eluted by 50 ml of 5 mM EDTA in PBS. A red pellet was obtained by centrifugation at 1,400 rpm, at 4° C., for 5 min, with the brake on. In order to perform lysis of the erythrocytes, the red pellet was re-suspended in 5 ml lysis-buffer (155 mM NH4Cl, 10 mM KHCO3, 0.1 mM EDTA, X0.1PBS) for 4 min, followed by immediate addition of 50 ml of PBS-EDTA.
# Following centrifugation at 1,400 rpm, at 4° C., for 5 min with brake on, the pellet was washed again with 50 ml PBS-EDTA and re-centrifuged under the same conditions. A white pellet was obtained and re-suspended in RPMI/10% FCS/L-glutamine/sodium pyruvate/antibiotics at a concentration of 3^X10^6 cells/ml. The cells were incubated for 2 h at 37° C., followed by collection of the non-adherent cells. The cells were ready for use in experiments after overnight incubation at 37° C. […]
# Laminar flow assays were performed as follows. Polystyrene plates (B.D) were coated with soluble VCAM-1 at 10 μg/ml in the presence of 2 μg/ml HSA carrier. The plates were washed three times with PBS and blocked with HSA (20 μg/ml in PBS) for 2 hrs at room temperature. Alternatively, washed plates were coated with 10 μg/ml MIG chemokine in PBS for 30 min at room temperature, before being blocked with HSA. The plates were assembled as the lower wall of a parallel wall flow chamber and mounted on the stage of an inverted microscope. The peptide, as described previously, (10 μg/ml) was allowed to settle on the substrate coated chamber wall for 10 min, at 37° C. and then washed. T cells (5×10^6/ml, purity >98%) were suspended in binding buffer, perfused into the chamber and allowed to settle on the substrate coated chamber wall for 1 min, at 37° C. Flow was initiated and increased in 2 to 2.5 fold increments every 5 sec. generating controlled shear stresses on the wall. Cells were visualized in a 20× objective of an inverted phase-contrast Diaphot Microscope (Nikon, Japan) and photographed with a long integration LIS-700 CCD video camera (Applitech; Holon, Israel), connected to a video recorder (AG-6730 S-VHS, Panasonic, Japan). The number of adherent cells resisting detachment by the elevated shear forces was determined after each interval by analysis of videotaped cell images, and was expressed as the percent of originally settled cells. All adhesion experiments were performed at least three times on multiple test fields.
Sequence,Bound chemokines (at least): MCP-1 (Human MCP-1),Bound chemokines (at least): Eotaxin (Eotaxin [1]),Bound chemokines (at least): IL-8 (human IL-8),further results
LDYPIPQTVLHH [BKT-P46],MCP-1,,,
LGFDPTSTRFYT [BKT-P22],,bind and found to bind Eotaxin,,
LLADTTHHRPWP [BKT-P37],,,IL-8,
SFWHHHSPRSPL [BKT-P31],,Eotaxin,,
SIFAHQTPTHKN [BKT-P3],MCP-1,,IL-8,"Bound chemokines (at least): MIG (MIG [3]): highest binding level and MIG; Binding to the various chemokines [4]: binds to all five chemokines tested; Level of Antagonistic Effect (MIG [5]): +++ (+++ 100%); Percentage of arrested cells (MIG [5]; MIG plus peptide (FIG. 4), MIG alone about 25-30%, control = VCAM-1 alone): dramatically reduced; Reduction of the activity of MIG (MIG [5]): complete arrest; Level of Antagonistic Effect (IL-8): +++ (+++ 100%); Abolishment of the activity of IL-8 (IL-8): complete arrest"
SIPSHSIHSAKA [BKT-P2],"MCP-1,",Eotaxin,IL-8,Level of Antagonistic Effect (MIG [5]): ++ (++ 50%); Reduction of the activity of MIG (MIG [5]): about 50%
SQTLPYSNAPSP [BKT-P1],,,,Bound chemokines (at least): SDF-1α (SDF-1α): bind and found to bind SDF-1α; Binding to the various chemokines [4]: bind specifically to various chemokines; also recorded: specifically to more than one chemokine
SVQTRPLFHSHF [BKT-P34],,Eotaxin,,
VHTSLLQKHPLP [BKT-P26],MCP-1,,,
WSAHIVPYSHKP [BKT-P52],MCP-1,,,

# Second part, led by results:
Bound chemokines (at least): MCP-1 (Human MCP-1),Bound chemokines (at least): Eotaxin (Eotaxin [1]),Bound chemokines (at least): IL-8 (human IL-8),Sequence,further results
,"Eotaxin,",IL-8,SAGHIHEAHRPL [BKT-P39],"Bound chemokines (at least): SDF-1α (SDF-1α): SDF-1α; Level of Antagonistic Effect (IL-8): −; Abolishment of the activity of IL-8 (IL-8): no effect; Level of Antagonistic Effect (Eotaxin [2]; Chemokine checked Eotaxin, T cells, peptide 10 μg/ml): +++ (+++ 100%); Blocking of the activity of Eotaxin (Eotaxin [2]; T cell adhesion under flow): 100%"
,,IL-8,SAISDHRAHRSH [BKT-P40],
MCP-1,,,TRLVPSRYYHHP [BKT-P47],
MCP-1,,,YATQHNWRLKHE [BKT-P53],
